One test deals with FL-LGN (mouse). As to the kind of experiment: ITC; 25°C; 50 mM Tris (pH 8.0), 100 mM NaCl, 1 mM EDTA; one protein (0.2 mM) injected into another (0.02 mM); one-site binding model. Background: Isothermal titration calorimetry measures the heat released or taken up as one component is titrated into another.
In test [1] the target is FL-LGN + Gαi3⋅GDP (mouse | human) (UniProt P08754). The description is as above.
Another test concerns the target FL-AGS3 (mouse). The description is as above.
Test [2] deals with FL-AGS3 + Gαi3⋅GDP (mouse | human) (UniProt P08754). Described as above.
The next test has as its target FL-LGN-4E (mouse). As to the kind of experiment: SEC-MALS; called SLS; HELEOS II (Wyatt); 100 μl of purified sample at about 10 μM.
The next test concerns the target FL-AGS3-L-4E (mouse). The test is described as above.
In test [3] the target is AGS3-TPR (1–405) (mouse). As to the kind of experiment: ITC; 25°C; 50 mM Tris (pH 8.0), NaCl raised to 300 mM for AGS3-TPR or AGS3-L, 1 mM EDTA; one protein (0.2 mM) injected into another (0.02 mM); one-site binding model.
Test [4] deals with AGS3-TPR (1–405) (mouse). As to the kind of experiment: SEC-MALS; called SLS; HELEOS II (Wyatt); 100 μl of purified sample at about 10 μM. (SEC sorts molecules by how far they enter the pores of the column.)
The target in a further test is AGS3-L (−23–405) (mouse). The description is as above.
The target of the next test is LGN-TPR (1–409) (mouse). The test is described as above.

Chain of FL-AGS3 + Gαi3⋅GDP (mouse | human) (P08754 whole entry, looked up): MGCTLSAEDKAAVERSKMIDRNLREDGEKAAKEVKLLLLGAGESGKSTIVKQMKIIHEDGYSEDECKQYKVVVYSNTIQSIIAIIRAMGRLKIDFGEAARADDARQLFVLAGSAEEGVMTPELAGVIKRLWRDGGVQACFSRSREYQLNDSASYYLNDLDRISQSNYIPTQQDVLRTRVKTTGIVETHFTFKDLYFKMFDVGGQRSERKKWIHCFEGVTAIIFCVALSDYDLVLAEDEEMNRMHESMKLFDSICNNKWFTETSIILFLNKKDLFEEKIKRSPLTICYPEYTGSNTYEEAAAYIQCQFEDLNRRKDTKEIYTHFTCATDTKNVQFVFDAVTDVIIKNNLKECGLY
Chain of FL-LGN + Gαi3⋅GDP (mouse | human) (P08754 whole entry, looked up): as above

B1: NuMA (1808–2001) (domain or fragment)
chain: KLDVEEPDSANSSFYSTRSAPASQASLRATSSTQSLARLGSPDYGNSALLSLPGYRPTTRSSARRSQAGVSSGAPPGRNSFYMGTCQDEPEQLDDWNRIAELQQRNRVCPPHLKTCYPLESRPSLSLGTITDEEMKTGDPQETLRRASMQPIQIAEGTGITTRQQRKRVSLEPHQGPGTPESKKATSCFPRPMT
As to B1, the Kd amounted to 3130 nM with FL-LGN (mouse), 2240 nM in test [1], 3610 nM in the test with FL-AGS3 (mouse) and 2280 nM in test [2]. In the test with FL-LGN-4E (mouse), this molecule registered a stoichiometry N (NuMA per FL-LGN-4E (2:2)) of 1. Further, the stoichiometry N (NuMA per FL-AGS3-L-4E (1:1)) with FL-AGS3-L-4E (mouse) worked out at 1.
For WGLWGAQESRRLCCVGPDRCGQALLQIGINMMALPGGRHLDSVPLQEQR (domain or fragment) [Insc (18–66)], the dissociation constant (Kd) worked out at 3920 nM with FL-LGN (mouse); 2620 nM in test [1]; 2270 nM with FL-AGS3 (mouse); 2290 nM in test [2]; 290 nM in the test with AGS3-TPR (1–405) (mouse) [3].
NSFYMGTCQDEPEQLDDWNRIAELQQR (domain or fragment) [NuMA (1886–1912)]: the Kd with AGS3-TPR (1–405) (mouse) [3] was 220 nM.

B2: NuMA (1847–1914) (domain or fragment)
chain: GSPDYGNSALLSLPGYRPTTRSSARRSQAGVSSGAPPGRNSFYMGTCQDEPEQLDDWNRIAELQQRNR
In the case of B2, in the test with AGS3-TPR (1–405) (mouse) [4], the stoichiometry N (NuMA per AGS3-TPR (1:1)) was 1. The molecule also showed a stoichiometry N (NuMA per AGS3-L (3:3)) with AGS3-L (−23–405) (mouse) of 1. Besides, the stoichiometry N (NuMA per LGN-TPR (3:3)) in the test with LGN-TPR (1–409) (mouse) stood at 1.

As usually defined, the Kd is the equilibrium constant for the complex coming apart.

These data come from publication PMC12151148.
